Assay results reported in EP4713368A1 (dated 2026).

B1: Ab No. 21a (antibody, V domains shown)
VH: QVQLVQSGAEVKKPGSSVKVSCKASGGTFNAYAISWVRQAPGQGLEWMGGIIPISGTAAYAQKFQGRVTITADESTSTAYMELSSLRSEDTAVYYCTRDLGFGAIRDTWGQGTLVTVSS
VL: EIVLTQSPATLSLSPGERATLSCRASQSVSSYLAWFQQKPGQAPRLLIYDASNRATGIPARFSGSGSGTDFTLTISSLEPEDFAVYYCQQSLNLPITFGGGTKVEIK
notes: derived from Ab No. 21 by modifying VH CDRs, VL unchanged; IgG format
B2: Ab No. 21b (antibody, V domains shown)
VH: QVQLVQSGAEVKKPGSSVKVSCKASGGTFNAYAISWVRQAPGQGLEWMGGIIPISGTANYAQKFQGRVTITADESTSTAYMELSSLRSEDTAVYYCTRDLGFGAIRDTWGQGTLVTVSS
VL: EIVLTQSPATLSLSPGERATLSCRASQSVSSYLAWFQQKPGQAPRLLIYDASNRATGIPARFSGSGSGTDFTLTISSLEPEDFAVYYCQQSLNLPITFGGGTKVEIK
notes: as for B1
B3: Ab No. 22 (antibody, V domains shown)
VH: QVQLVQSGAEVKKPGSSVKVSCKASGGTFSSYAISWVRQAPGQGLEWMGGIIPISGTANYAQKFQGRVTITADESTSTAYMELSSLRSEDTAVYYCVRARGIVGPDEGPWGQGTLVTVSS
VL: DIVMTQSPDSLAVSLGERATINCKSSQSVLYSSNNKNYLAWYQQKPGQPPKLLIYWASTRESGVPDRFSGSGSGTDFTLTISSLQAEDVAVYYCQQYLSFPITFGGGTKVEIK
notes: IgG format
B4: Ab No. 23 (antibody, V domains shown)
VH: QVQLVQSGAEVKKPGSSVKVSCKASGGTFSSYAISWVRQAPGQGLEWMGGIIPISGTANYAQKFQGRVTITADESTSTAYMELSSLRSEDTAVYYCVRARGIVGPDEGPWGQGTLVTVSS
VL: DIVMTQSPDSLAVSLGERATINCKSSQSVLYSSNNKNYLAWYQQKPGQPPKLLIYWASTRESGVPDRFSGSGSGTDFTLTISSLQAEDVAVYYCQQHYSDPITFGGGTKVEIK
notes: IgG format
B5: Ab No. 57 (antibody, V domains shown)
VH: QVQLQESGPGLVKPSETLSLTCTVSGGSISSYYWSWIRQPPGKGLEWIGSIYYSGSTNYNPSLKSRVTISVDTSKNQFSLKLSSVTAADTAVYYCARTEVGATRPREDFQHWGQGTLVTVSS
VL: QSVLTQPPSVSAAPGQKVTISCSGSSSNIGNNYVSWYQQLPGTAPKLLIYDNNKRPSGIPDRFSGSKSGTSATLGITGLQTGDEADYYCGTWDISLGWVFGGGTKLTVL
notes: IgG format
B6: Ab No. 6 (antibody, V domains shown)
VH: QVQLVQSGAEVKKPGSSVKVSCKASGGTFSSYAISWVRQAPGQGLEWMGGIIPISGTANYAQKFQGRVTITADESTSTAYMELSSLRSEDTAVYYCAKGGFGAPLPTWGQGTLVTVSS
VL: DIQMTQSPSSVSASVGDRVTITCRASQGISSWLAWYQQKPGKAPKLLIYAASSLQSGVPSRFSGSGSGTDFTLTISSLQPEDFATYYCQQGISHPFTFGGGTKVEIK
notes: IgG format
B7: Ab No. 7 (antibody, V domains shown)
VH: QVQLVQSGAEVKKPGSSVKVSCKASGGTFSSYAISWVRQAPGQGLEWMGGIIPISGTANYAQKFQGRVTITADESTSTAYMELSSLRSEDTAVYYCAKGGFGAPLPTWGQGTLVTVSS
VL: DIQMTQSPSSLSASVGDRVTITCRASQSISSYLNWYQQKPGKAPKLLIYSASSLQSGVPSRFSGSGSGTDFTLTISSLQPEDFATYYCQQGSSVPFTFGGGTKVEIK
notes: IgG format
B8: Ab No. 5 (antibody, V domains shown)
VH: QVQLVQSGAEVKKPGSSVKVSCKASGGTFSSYAISWVRQAPGQGLEWMGGIIPISGTANYAQKFQGRVTITADESTSTAYMELSSLRSEDTAVYYCAKGGFGAPLPTWGQGTLVTVSS
VL: DIQLTQSPSSVSASVGDRVTITCRASQDISSWLAWYQQKPGKAPKLLIYAASSLQSGVPSRFSGSGSGTDFTLTISSLQPEDFATYYCQQGNAHPFTFGGGTKVEIK
notes: IgG format
B9: Ab No. 28 (antibody, V domains shown)
VH: EVQLLESGGGLVQPGGSLRLSCAASGFTFSSYAMSWVRQAPGKGLEWVSAISGSGGSTYYADSVKGRFTISRDNSKNTLYLQMNSLRAEDTAVYYCVRGYRLVGILTGSHFDYWGQGTLVTVSS
VL: DIQMTQSPSTLSASVGDRVTITCRASQSIGSWLAWYQQKPGKAPKLLIYKASSLESGVPSRFSGSGSGTEFTLTISSLQPDDFATYYCQQYNILPPTFGGGTKVEIK
notes: IgG format
B10: Ab No. 25 (antibody, V domains shown)
VH: EVQLVESGGGLVQPGRSLRLSCAASGFTFDDYAMHWVRQAPGKGLEWVSGISWSSGSIGYADSVKGRFTISRDNAKNSLYLQMNSLRAEDTAVYYCAKAWGRVGRANYYYYGLDVWGQGTTVTVSS
VL: EIVLTQSPATLSLSPGERATLSCRASQSVSSYLAWYQQKPGQAPRLLIYDASNRATGIPARFSGSGSGTDFTLTISSLEPEDFAVYYCQQYSNFPPITFGGGTKVEIK
notes: IgG format
B11: Ab No. 26 (antibody, V domains shown)
VH: EVQLVESGGGLVQPGRSLRLSCAASGFTFDDYAMHWVRQAPGKGLEWVSGISWSSGSIGYADSVEGRFTISRDNAKNSLYLQMNSLRAEDTAVYYCAKAWGRVGRANYYYYGLDVWGQGTTVTVSS
VL: EIVLTQSPATLSLSPGERATLSCRASQSVSSYLAWYQQKPGQAPRLLIYDASNRATGIPARFSGSGSGTDFTLTISSLEPEDFAVYYCQQYANHLTFGGGTKVEIK
notes: IgG format
B12: Ab No. 27 (antibody, V domains shown)
VH: EVQLLESGGGLVQPGGSLRLSCAASGFTFSNYAMSWVRQAPGKGLEWVSAISGSGGSTYYADSVKGRFTISRDNSKNTLYLQMDSLRAEDTAVYYCASFGDIAVAGAGFVNWGQGTLVTVSS
VL: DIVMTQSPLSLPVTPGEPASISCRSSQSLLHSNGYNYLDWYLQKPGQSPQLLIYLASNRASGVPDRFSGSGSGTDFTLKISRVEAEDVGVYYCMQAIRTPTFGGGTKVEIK
notes: IgG format
B13: Ab No. 24 (antibody, V domains shown)
VH: QITLKESGPTLVKPTQTLTLTCTFSGFSLSTSGVGVGWIRQPPGKALEWLALIYWNDDKRYSPSLKSRLTITKDTSKNQVVLTMTNMDPVDTAVYYCARSFDQGIAVWGPFDYWGQGTLVTVSS
VL: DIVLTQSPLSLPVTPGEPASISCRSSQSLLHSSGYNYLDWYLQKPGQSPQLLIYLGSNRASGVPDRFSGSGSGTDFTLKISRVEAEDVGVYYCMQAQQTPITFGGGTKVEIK
notes: IgG format
B14: Ab No. 3 (antibody, V domains shown)
VH: QVQLVQSGAEVKKPGSSVKVSCKASGGTFSSYAISWVRQAPGQGLEWMGGIIPISGTANYAQKFQGRVTITADESTSTAYMELSSLRSEDTAVYYCAKALAPGIPQWGQGTLVTVSS
VL: DIQMTQSPSSLSASVGDRVTITCRASQSISSYLNWYQQKPGKAPKLLIYAASSLQSGVPSRFSGSGSGTDFTLTISSLQPEDFATYYCQQAYDDPTFGGGTKVEIK
notes: IgG format
B15: Ab No. 4 (antibody, V domains shown)
VH: QVQLVQSGAEVKKPGSSVKVSCKASGGTFSSYAISWVRQAPGQGLEWMGGIIPISGTANYAQKFQGRVTITADESTSTAYMELSSLRSEDTAVYYCAKALAPGIPQWGQGTLVTVSS
VL: DIQMTQSPSSLSASVGDRVTITCRASQSISRYLNWYQQKPGKAPKLLIYGASSLQSGVPSRFSGSGSGTDFTLTISSLQPEDFATYYCQQAFSSPITFGGGTKVEIK
notes: IgG format
B16: Ab No. 9 (antibody, V domains shown)
VH: QVQLVQSGAEVKKPGSSVKVSCKASGGTFSSYAISWVRQAPGQGLEWMGGIIPISGTANYAQKFQGRVTITADESTSTAYMELSSLRSEDTAVYYCALGRWLTEAQWGQGTLVTVSS
VL: not shown
notes: IgG format
B17: Ab No. 8 (antibody, V domains shown)
VH: QVQLVQSGAEVKKPGSSVKVSCKASGGTFSSYAISWVRQAPGQGLEWMGGIIPISGTANYAQKFQGRVTITADESTSTAYMELSSLRSEDTAVYYCAKTRTVAYPGSDWGQGTLVTVSS
VL: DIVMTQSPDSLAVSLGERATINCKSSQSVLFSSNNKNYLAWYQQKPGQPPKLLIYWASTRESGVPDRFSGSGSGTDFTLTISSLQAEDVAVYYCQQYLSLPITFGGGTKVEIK
notes: IgG format
B18: Ab No. 2 (antibody, V domains shown)
VH: QVQLVQSGAEVKKPGASVKVSCKASGYTFTSYAMHWVRQAPGQRLEWMGWINAGTGATKYSQKFQGRVTITRDTSASTAYMELSSLRSEDTAVYYCARDLVHSYGLLPGWGQGTLVTVSS
VL: EIVLTQSPATLSLSPGERATLSCRASQSVSSYLAWYQQKPGQAPRLLIYDASNRATGIPARFSGSGSGTDFTLTISSLEPEDFAVYYCQQYSNWPFTFGGGTKVEIK
notes: IgG format
B19: Ab No. 21 (antibody, V domains shown)
VH: QVQLVQSGAEVKKPGSSVKVSCKASGGTFSSYAISWVRQAPGQGLEWMGGIIPISGTANYAQKFQGRVTITADESTSTAYMELSSLRSEDTAVYYCTRDLGFGAIRDTWGQGTLVTVSS
VL: EIVLTQSPATLSLSPGERATLSCRASQSVSSYLAWFQQKPGQAPRLLIYDASNRATGIPARFSGSGSGTDFTLTISSLEPEDFAVYYCQQSLNLPITFGGGTKVEIK
notes: IgG format
B20: Ab No. 20 (antibody, V domains shown)
VH: QVQLVQSGAEVKKPGSSVKVSCKASGGTFSSYAISWVRQAPGQGLEWMGGIIPISGTANYAQKFQGRVTITADESTSTAYMELSSLRSEDTAVYYCTRDLGFGAIRDTWGQGTLVTVSS
VL: EIVLTQSPATLSLSPGERATLSCRASQSVSSYLAWYQQKPGQAPRLLIYDASNRATGIPARFSGSGSGTDFTLTISSLEPEDFAVYYCQQSNNLPITFGGGTKVEIK
notes: IgG format
B21: Ab No. 46 (antibody, V domains shown)
VH: QVQLVQSGAEVKKPGSSVKVSCKASGGTFSSYAISWVRQAPGQGLEWMGGIIPISGTTNYAQKFQGRVTITADESTSTAYMELSSLRSEDTAVYYCARHSSSWGTAITSDYWGQGTLVTVSS
VL: QSVLTQPPSVSGAPGQRVTISCTGSGSNIGAGYDVHWYQQLPGTAPKLLIYGNTNRPSGVPDRFSGSKSGTSASLAITGLQAEDEADYYCQSNDNSLRGILFGGGTKLTVL
notes: IgG format
B22: Ab No. 18 (antibody, V domains shown)
VH: QVQLVQSGAEVKKPGSSVKVSCKASGGTFSSYAISWVRQAPGQGLEWMGGIIPISGTANYAQKFQGRVTITADESTSTAYMELSSLRSEDTAVYYCARPEKGFTSGLVDWGQGTLVTVSS
VL: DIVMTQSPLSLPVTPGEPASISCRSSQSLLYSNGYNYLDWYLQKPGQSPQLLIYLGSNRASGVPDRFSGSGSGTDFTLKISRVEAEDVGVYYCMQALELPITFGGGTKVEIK
notes: IgG format
B23: Ab No. 19 (antibody, V domains shown)
VH: QVQLVQSGAEVKKPGSSVKVSCKASGGTFSSYAISWVRQAPGQGLEWMGGIIPISGTANYAQKFQGRVTITADESTSTAYMELSSLRSEDTAVYYCARQYGTFAFYSDYWGQGTLVTVSS
VL: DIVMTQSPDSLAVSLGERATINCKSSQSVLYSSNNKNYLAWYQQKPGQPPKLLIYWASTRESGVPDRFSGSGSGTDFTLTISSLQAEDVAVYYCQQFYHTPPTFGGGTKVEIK
notes: IgG format

The binders below were run against T1, human CD28 (human, UniProt P10747 19-152, limits assumed) (assay: affinity maturation of CD28-binding antibodies (Example 10: Discovery of Additional Antibodies that Bind to CD28)).
T1 construct: also called Cluster of Differentiation 28; Tp44

Binding result, binds:
B1
B2

These binders were tested against T1, human CD28 (assay: selection from yeast-presented synthetic human antibody libraries).

Binding result, binds:
B3
B4
B5
B6
B7
B8
B9
B10
B11
B12
B13
B14
B15
B16
B17
B18
B19
B20
B21
B22
B23
